Measured values reported in patent publication US20250083113A1, “Apparatus for Improving Hydration and/or Reducing Particle Size of a Product and a Method of Use Thereof” (St Andrews Pharmaceutical Technology Limited, priority 2021, published 2025).

Assay: Particle size of reconstituted freeze dried Factor XI by dynamic light scattering
Assay type: physicochemical
Conditions: sample exposed to a pulsed electromagnetic field compared to the control
Excerpt: Experiment 1 was repeated but with Hemoleven (Factor XI) in place of the Factor VIII.

Factor XI: Hemoleven (Factor XI), blood clotting factor
% volume of larger particles: significant reduction
